Assay [1] addresses carboxyl terminal domain of rat Cx43 (Cx43CT; residues S255-I382) (rat, UniProt P08050 255-382). Nature of the assay: NMR titration.
Assay [2] addresses ubiquitin (from bovine erythrocytes) (bovine, UniProt P0CG53 1-76). Briefly: NMR titration.

Chain of carboxyl terminal domain of rat Cx43 (Cx43CT; residues S255-I382) (P08050 255-382): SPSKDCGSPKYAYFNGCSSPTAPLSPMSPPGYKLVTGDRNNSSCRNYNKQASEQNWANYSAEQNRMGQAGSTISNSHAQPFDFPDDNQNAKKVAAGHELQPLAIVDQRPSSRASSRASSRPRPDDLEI

B1: UBA domain of CIP75 (connexin43-interacting protein of approximately 75 kDa), residues M549-S596 (domain or fragment, mouse, UniProt Q99NB8 549-596, looked up)
chain: MPEVRFQQQLEQLNSMGFINREANLQALIATGGDINAAIERLLGSQLS
In the case of B1, the binding result in assay [1] and in assay [2] was “binds” in each case.

For the origin of these results see paper PMC2877510 (Journal of biomolecular NMR, 2010).
